# Reference: publication PMC8146696, “Live-Cell Analysis of Human Cytomegalovirus DNA Polymerase Holoenzyme Assembly by Resonance Energy Transfer Methods” (Microorganisms, 2021)
# Where a chain is given by its changes, count along the chain named. In names and notes the source's numbering stands.
# B1: HCMV DNA polymerase processivity factor ppUL44, UL44(2–433), wild type (natural protein)
# chain: DRKTRLSEPPTLALRLKPYKTAIQQLRSVIRALKENTTVTFLPTPSLILQTVRSHCVSKITFNSSCLYITDKSFQPKTINNSTPLLGNFMYLTSSKDLTKFYVQDISDLSAKISMCAPDFNMEFSSACVHGQDIVRESENSAVHVDLDFGVVADLLKWIGPHTRVKRNVKKAPCPTGTVQILVHAGPPAIKFILTNGSELEFTANNRVSFHGVKNMRINVQLKNFYQTLLNCAVTKLPCTLRIVTEHDTLLYVASRNGLFAVENFLTEEPFQRGDPFDKNYVGNSGKSRGGGGGGGSLSSLANAGGLHDDGPGLDNDLMNEPMGLGGLGGGGGGGGKKHDRGGGGGSGTRKMSSGGGGGDHDHGLSSKEKYEQHKITSYLTSKGGSGGGGGGGGGGLDRNSGNYFNDAKEESDSEDSVTFEFVPNTKKQKCG
# notes: also called YFP-UL44; CFP-UL44; source: HEK293T, transiently transfected, in cells; YFP-UL44 also stably expressed in HEK293A (lentiviral transduction, puromycin); RLuc-UL44 also stably expressed in HEK293A clone 1B2 (G418); not shown: YFP (acceptor copy) or CFP (FRET donor copy) or RLuc (BRET donor copy), N-terminal, kept
# B2: ppUL44 UL44(2–433) L86A/L87A (natural protein)
# chain: B1 chain with L85A, L86A
# notes: source: HEK293T, transiently transfected, in cells; not shown: YFP (acceptor copy) or CFP (FRET donor copy) or RLuc (BRET donor copy), N-terminal, kept
# B3: ppUL44 UL44(2–433) I135A (natural protein)
# chain: B1 chain with I134A
# notes: source: HEK293T, transiently transfected, in cells; not shown: YFP (acceptor copy) or RLuc (BRET donor copy), N-terminal, kept
# B4: FLAG-tagged ppUL44 (natural protein)
# chain: MDRKTRLSEPPTLALRLKPYKTAIQQLRSVIRALKENTTVTFLPTPSLILQTVRSHCVSKITFNSSCLYITDKSFQPKTINNSTPLLGNFMYLTSSKDLTKFYVQDISDLSAKISMCAPDFNMEFSSACVHGQDIVRESENSAVHVDLDFGVVADLLKWIGPHTRVKRNVKKAPCPTGTVQILVHAGPPAIKFILTNGSELEFTANNRVSFHGVKNMRINVQLKNFYQTLLNCAVTKLPCTLRIVTEHDTLLYVASRNGLFAVENFLTEEPFQRGDPFDKNYVGNSGKSRGGGGGGGSLSSLANAGGLHDDGPGLDNDLMNEPMGLGGLGGGGGGGGKKHDRGGGGGSGTRKMSSGGGGGDHDHGLSSKEKYEQHKITSYLTSKGGSGGGGGGGGGGLDRNSGNYFNDAKEESDSEDSVTFEFVPNTKKQKCG
# notes: also called FLAG-UL44; pDESTnFLAG-UL44; source: HEK293T or HEK293A-derived cell lines, transiently transfected, in cells
# B5: HCMV DNA polymerase catalytic subunit pUL54, C-terminal domain UL54(1125–1242) (domain or fragment)
# chain: VSRSDAIDGTDDDADGGGVEESNRRGGEPAKKRARKPPSAVCNYEVAEDPSYVREHGVPIHADKYFEQVLKAVTNVLSPVFPGGETARKDKFLHMVLPRRLHLEPAFLPYSVKAHECC
# notes: also called CFP-UL54(1125–1242); RLuc-UL54; source: HEK293T, transiently transfected, in cells; not shown: CFP (FRET) or RLuc (BRET), N-terminal, kept
# Experiments:
# [1] = molecular target: ppUL44 UL44(2–433) Δloop (R165G/K167N/K168G) (human cytomegalovirus (HCMV)) (UniProt P16790); experiment: FRET or BRET; BRET saturation in living HEK293T cells; fixed RLuc donor plasmid, increasing YFP acceptor plasmid (0-500 ng); one-site hyperbola of BRET ratio against YFPnet/RLuc gives B50 (relative affinity)
# [2] = molecular target: pUL54 C-terminal 20 aa C-terminal 20 aa (Human cytomegalovirus) (UniProt P08546); conditions: cited from earlier work
# [3] = molecular target: UL44Δ290 1-290 (Human cytomegalovirus) (UniProt P16790); experiment: gel filtration; conditions: cited from earlier work
# [4] = molecular target: ppUL44 UL44(2–433) ΔNLS (K428V/K429A/K431) (human cytomegalovirus (HCMV)) (UniProt P16790); experiment: FRET or BRET; BRET saturation in living HEK293T cells; fixed RLuc donor plasmid, increasing YFP acceptor plasmid (0-500 ng); one-site hyperbola of BRET ratio against YFPnet/RLuc gives B50 (relative affinity)
# [5] = molecular target: the molecule itself; experiment: as above
# [6] = molecular target: the molecule itself; experiment: FRET or BRET; BRET in monoclonal HEK293A lines (from clone 1B2) stably expressing both YFP-UL44 and RLuc-UL44
# [7] = molecular target: the molecule itself; experiment: FRET or BRET; BRET at one donor/acceptor ratio in living HEK293T cells; RLuc fusion donor with or without YFP-UL44 acceptor, both transient; 48 h post transfection, cells in PBS, coelenterazine 5 uM
# [8] = molecular target: B5; experiment: FRET or BRET; BRET inhibition, system 1: HEK293T transiently expressing RLuc donor and YFP-UL44 acceptor at about 50% of BRETmax, with increasing amounts of pDESTnFLAG-UL44 or pDESTnFLAG-UL42; conditions: partners not purified
# [9] = molecular target: B1; experiment: FRET or BRET; BRET saturation in living HEK293T cells; fixed RLuc donor plasmid, increasing YFP acceptor plasmid (0-500 ng); one-site hyperbola of BRET ratio against YFPnet/RLuc gives B50 (relative affinity); conditions: partners not purified
# [10] = molecular target: B2; experiment: as above; conditions: partners not purified
# ppUL44 UL44(2–433) I135A = molecular target: B3; experiment: as above; conditions: partners not purified
molecule,measurement,setting,value
ppUL44 UL44(2–433) Δloop (R165G/K167N/K168G) (from UniProt P16790 2-433) (natural protein),B50,[1],12.6
UL44Δ290 1-290 (from UniProt P16790),Kd,[2],700 nM
same,Kd,[3],250 nM
ppUL44 UL44(2–433) ΔNLS (K428V/K429A/K431) (from UniProt P16790 2-433) (natural protein),B50,[4],11.2
"HCMV DNA polymerase catalytic subunit pUL54, C-terminal domain UL54(1125–1242) (from UniProt P08546 1125-1242) (domain or fragment)",B50,[4],15.1
same,B50,[1],34.4
B1,B50,[5],19
same,BRET ratio,[6],0.17
same,BRET ratio,[7],0.36 ± 0.1
B2,B50,[5],73.7
B3,B50,[5],25.5
B4,percent inhibition of the RLuc-UL54/YFP-UL44 BRET ratio,[8],~40%
B5,B50,[9],20
same,B50,[10],11.5
same,B50,ppUL44 UL44(2–433) I135A,81.2
